For five molecules, Kd, koff and kon results are on record in US20240317890A1 (INSTITUT CURIE, published 2024).

For the test, the target named is T1, recombinant human Her2/ErbB2 Fc Tag (ACROBiosystems) (human, UniProt P04626 23-652).
T1 construct: Bought product; Captured on protein A biosensors; also called HER2-Fc; not shown: Fc tag of the bought product
The test is described as follows: BLI (Octet-HTX), HER2-Fc captured on protein A biosensors, sdAb in solution, 37 C. The source says:
Affinity measurements: Affinity measurements can be done by surface plasmon resonance (for example as detailed in Moutel, Sandrine et al. “NaLi-H1: A universal synthetic library of humanized nanobodies providing highly functional antibodies and intrabodies.” eLife vol. 5 e16228. 19 Jul. 2016, doi:10.7554/eLife.16228). More particularly, binding affinities of selected hs2dAb fused to a 10HIS tag measured by surface plasmon resonance single cycle kinetics method. Dissociation equilibrium constant KD corresponds to the ratio between off-rate and on-rate kinetic constant Koff/Kₒₙ. […] Affinity measurements were also performed on an Octet-HTX (Sartorius) by bio-Layer Interferometry (BLI) which is an optical technique for measuring macromolecular interactions by analyzing interference patterns of white light reflected from the surface of a biosensor tip. BLI experiments were used to determine the kinetics and affinity of molecular interactions. Biosensors with proteinA were used to capture recombinant human Her2/ErbB2 Fc Tag (ACROBiosystems), the sensors were then dipped in wells containing purified sdAb to measure kinetics at 37° C.
Affinity measurement were also performed using BLI as above detailed.

B1: anti-HER2 humanized synthetic single domain antibody sdAb no 5 (VHH)
VHH: EVQLQASGGGFVQPGGSLRLSCAASGYTFSEETMGWFRQAPGKEREFVSAISWNHTFFEYYADSVKGRFTISRDNSKNTVYLQMNSLRAEDTATYYCAVTPLPPNKAYWGQGTQVTVSS
notes: Purified sdAb in BLI; also called sdAb 5; hsdAb 5
In the case of B1, the Kd is 33.3 nM, the koff was determined as 0.0015 s⁻¹ and the kon was 44000 M⁻¹ s⁻¹.

B2: anti-HER2 humanized synthetic single domain antibody sdAb no 6 (VHH)
VHH: EVQLQASGGGFVQPGGSLRLSCAASGRGYTGTTMGWFRQAPGKEREFVSAISWTSNQTSYYADSVKGRFTISRDNSKNTVYLQMNSLRAEDTATYYCAMMPLPRWKGYWGQGTQVTVSS
notes: Purified sdAb in BLI; Any tag is not described for this assay; also called sdAb 6
Regarding B2, the Kd came out at 8.4 nM, the koff is 0.0066 s⁻¹ and the kon was 780000 M⁻¹ s⁻¹.

B3: anti-HER2 humanized synthetic single domain antibody sdAb no 1 (VHH)
VHH: EVQLQASGGGFVQPGGSLRLSCAASGATSNISNMGWFRQAPGKEREFVSAISRAESRPLYYADSVKGRFTISRDNSKNTVYLQMNSLRAEDTATYYCAYMPLVRHKAYWGQGTQVTVSS
notes: Purified sdAb in BLI; also called sdAb 1; hsdAb1
On to B3, for which the Kd came out at 4.6 nM, the koff amounted to 0.004 s⁻¹ and the kon was 880000 M⁻¹ s⁻¹.

B4: anti-HER2 humanized synthetic single domain antibody sdAb no 2 (VHH)
VHH: EVQLQASGGGFVQPGGSLRLSCAASGDSYNESSMGWFRQAPGKEREFVSAISARGNHPLYYADSVKGRFTISRDNSKNTVYLQMNSLRAEDTATYYCASMPMPKWKKYWGQGTQVTVSS
notes: Purified sdAb in BLI; also called sdAb 2; hsdAb 2
In the case of B4, the Kd was 4.1 nM, the koff amounted to 0.0049 s⁻¹ and the kon stood at 1.2e+06 M⁻¹ s⁻¹.

B5: anti-HER2 humanized synthetic single domain antibody sdAb no 4 (VHH)
VHH: EVQLQASGGGFVQPGGSLRLSCAASGYTSRESGMGWFRQAPGKEREFVSAISRDQDGISYYADSVKGRFTISRDNSKNTVYLQMNSLRAEDTATYYCAMIPLTRNAKYWGQGTQVTVSS
notes: Purified sdAb in BLI; Any tag is not described for this assay; also called sdAb 4
Consider B5, for which the Kd was 5.2 nM, the koff is 0.0076 s⁻¹ and the kon is 1.47e+06 M⁻¹ s⁻¹.
